Measured values published in patent US20150266963A1 (ARGEN X B V, published 2015).

Assays:
[1] = target: T1, human CD70 expressed on the surface of cells (human, UniProt P32970 1-193); test: FACS MFI at 37 C, Mino cells; reference SGN70
T1 construct: whole, on cells; also called cell surface expressed CD70; CD70 on cells
T1 sequence (looked up): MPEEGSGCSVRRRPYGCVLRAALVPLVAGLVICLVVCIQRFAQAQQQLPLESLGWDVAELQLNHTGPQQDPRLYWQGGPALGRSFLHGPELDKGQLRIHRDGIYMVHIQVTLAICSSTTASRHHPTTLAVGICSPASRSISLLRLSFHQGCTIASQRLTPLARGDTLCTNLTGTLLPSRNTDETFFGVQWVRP
Experimental: (§1) Several cancer cell lines were tested by FACS analysis for binding of ARGX-110 and SGN70 (described in US2010/0129362) at saturating mAb concentrations (at least 2 μg/ml). This was either done at 4° C. (1 hour incubation of cells with mAbs) or at 37° C. (15 minutes incubation of cells with mAbs). Binding was detected using anti-hIgG1-Fc-FITC (AF006, Binding Site) or anti-hIgG1-Fc-PE antibody (eBioscience, 12-4998). Fluorescence was measured using a flow cytometer.

[2] = target: T1, human CD70 expressed on the surface of …; test: FACS MFI at 37 C, SU-DHL-6 cells; reference SGN70
Experimental: as §1

[3] = target: T1, human CD70 expressed on the surface of …; test: flow cytometry on U266 cells, goat anti human IgG1 FITC [panel U266]
[4] = target: T1, human CD70 expressed on the surface of …; test: FACS MFI at 37 C, Mec1 cells; reference SGN70
Experimental: as §1

[5] = target: T2, rhesus CD70 on LCL8664 cells (rhesus, UniProt F7GPA5 123-316); test: flow cytometry on rhesus LCL8664 cells, goat anti human IgG1 FITC [panel Rhesus monkey]
T2 construct: whole, on cells
T2 sequence: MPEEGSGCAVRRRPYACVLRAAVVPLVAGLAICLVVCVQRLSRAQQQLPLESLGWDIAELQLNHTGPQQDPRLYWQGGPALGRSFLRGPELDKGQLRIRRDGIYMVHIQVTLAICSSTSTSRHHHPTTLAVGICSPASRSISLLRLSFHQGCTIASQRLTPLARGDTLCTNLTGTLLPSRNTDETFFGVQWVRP

[6] = target: T1, human CD70 expressed on the surface of …; test: FACS MFI at 37 C, MHHPREB1 cells; reference SGN70
Experimental: as §1

[7] = target: T3, recombinant human CD70 (Flag-TNC-CD70) (human, UniProt P32970 39-193); test: blocking ELISA; Flag-TNC-CD70 captured by anti-FLAG M2; competitor CD27-Fc 6.5 nM
T3 construct: extracellular domain; Captured by anti-Flag mAb in ELISA; as 'recombinant human CD70' immobilised on Biacore CM5 chips; TNC is for trimerisation; also called recombinant CD70; human recombinant CD70; not shown: Flag tag and TNC trimerisation domain
T3 sequence (looked up): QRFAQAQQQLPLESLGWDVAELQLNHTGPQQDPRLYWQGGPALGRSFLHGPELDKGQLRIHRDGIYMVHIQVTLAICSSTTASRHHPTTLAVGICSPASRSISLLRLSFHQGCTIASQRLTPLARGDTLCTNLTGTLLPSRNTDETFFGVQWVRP
Experimental: In this assay, a microtiter plate (Nunc Maxisorb) was first coated with 100 μl anti-FLAG M2 monoclonal antibody (Sigma Aldrich, F3165) at 1250-fold dilution in PBS (to achieve a final concentration of approximately 3.5 μg/ml) overnight at 4° C. The plate was washed once with PBS-Tween and incubated at RT for 2 hours with 300 μl PBS-1% casein. The plate was washed a further three times with PBS-Tween. 100 μl of 5 ng/ml (80 pM) Flag-TNC-CD70 (The Journal of Immunology, 2009, 183: 1851-1861) diluted in PBS-0.1% casein was added to the plate and incubated at RT for 1 hour while shaking. The plate was washed five times with PBS-Tween. The CD70 mAb to be tested was added to the plate; various concentrations were achieved by diluting the stock antibody solution in PBS-0.1% casein. Immediately thereafter, 50 μl of 1 μg/ml (final concentration 6.5 nM) recombinant human CD27 Fc chimera (R&D systems 382-CD, MW=46.5 kDa) was added, and incubated at RT for 1 hour while shaking. The plate was washed five times with PBS Tween. 100 μl of biotinylated anti-CD27 (eBioscience 13-0271), diluted 500-fold in PBS-0.1% casein, was added, and the plate incubated at RT for a further hour, while shaking. The plate was washed five times with PBS Tween. […] 100 μl TMB was added to the plate and the OD at 620 nm was measured. […]

[8] = target: T1, human CD70 expressed on the surface of …; test: FACS MFI at 37 C, A549 cells; reference SGN70
Experimental: as §1

[9] = target: T1, human CD70 expressed on the surface of …; test: FACS MFI at 37 C, L428 cells; reference SGN70
Experimental: as §1

[10] = target: T1, human CD70 expressed on the surface of …; test: FACS MFI at 37 C, PANC-1 cells; reference SGN70
Experimental: as §1

Signal in FACS of ARGX-110/signal in FACS of SGN70 [1]: 1 ratio
Signal in FACS of ARGX-110/signal in FACS of SGN70 [2]: 2.4 ratio
EC50 (read off the curve) [3]: ~100 ng/mL
Signal in FACS of ARGX-110/signal in FACS of SGN70 [4]: 1.2 ratio
EC50 (read off the curve) [5]: ~200 ng/mL
Signal in FACS of ARGX-110/signal in FACS of SGN70 [6]: 1.2 ratio
IC50 [7]: 0.067 µg/mL
Signal in FACS of ARGX-110/signal in FACS of SGN70 [8]: 3.8 ratio
Signal in FACS of ARGX-110/signal in FACS of SGN70 [9]: 1.4 ratio
Signal in FACS of ARGX-110/signal in FACS of SGN70 [10]: 2.9 ratio
B1: ARGX-110 (non-fucosylated 41D12 human IgG1) (antibody, V domains shown)
VH: EVQLVESGGGLVQPGGSLRLSCAASGFTFSVYYMNWVRQAPGKGLEWVSDINNEGGTTYYADSVKGRFTISRDNSKNSLYLQMNSLRAEDTAVYYCARDAGYSNHVPIFDSWGQGTLVTVSS
VL: QAVVTQEPSLTVSPGGTVTLTCGLKSGSVTSDNFPTWYQQTPGQAPRLLIYNTNTRHSGVPDRFSGSILGNKAALTITGAQADDEAEYFCALFISNPSVEFGGGTQLTVLG
notes: also called 41D12 (ARGX-110)
